Source: US20040176301A1 (CYCLACEL, published 2004)
Read-outs that look alike come from different tables or passages of the source. Square brackets hold non-standard residues; d marks the D form. Ends that are not written are not given here. hSer = N[C@@H](CCO)C(=O)O; Nle = CCCC[C@H](N)C(=O)O

Columns and labels:
CDK2/cyclin A [1] = molecular target: T1, CDK2/cyclin A (UniProt P24941 1-298; P20248 1-432); experiment: cell-based or functional assay
CDK2/cyclin A complex = CDK2/cyclin A complex (UniProt P24941 1-298; P20248 1-432); experiment: cell-based or functional assay
CDK2/cyclin A [2] = molecular target: T1, CDK2/cyclin A; experiment: cell-based or functional assay; remark: listed apart in the source
CDK2/cyclin A [3] = molecular target: T1, CDK2/cyclin A; experiment: cell-based or functional assay; remark: listed apart in the source
CDK2/Cyclin E complex = CDK2/Cyclin E complex (UniProt P24941 1-298; P24864 1-410); experiment: cell-based or functional assay
CDK4/Cyclin D1 complex = CDK4/Cyclin D1 complex (UniProt P11802 1-303; P24385 1-295); experiment: cell-based or functional assay
Sequence of CDK4/Cyclin D1 complex (P11802 other isoform, or with tags, fused parts or gaps, chain 1 of 2): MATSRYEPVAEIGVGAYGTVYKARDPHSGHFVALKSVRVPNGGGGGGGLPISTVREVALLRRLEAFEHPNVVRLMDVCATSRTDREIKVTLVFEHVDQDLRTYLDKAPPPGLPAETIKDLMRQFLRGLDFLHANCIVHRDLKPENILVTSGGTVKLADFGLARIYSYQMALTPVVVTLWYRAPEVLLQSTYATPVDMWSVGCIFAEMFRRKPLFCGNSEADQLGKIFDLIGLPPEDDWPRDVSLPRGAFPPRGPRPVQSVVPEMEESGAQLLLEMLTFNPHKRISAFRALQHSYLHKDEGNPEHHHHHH
Sequence of CDK4/Cyclin D1 complex (P24385 whole entry, chain 2 of 2): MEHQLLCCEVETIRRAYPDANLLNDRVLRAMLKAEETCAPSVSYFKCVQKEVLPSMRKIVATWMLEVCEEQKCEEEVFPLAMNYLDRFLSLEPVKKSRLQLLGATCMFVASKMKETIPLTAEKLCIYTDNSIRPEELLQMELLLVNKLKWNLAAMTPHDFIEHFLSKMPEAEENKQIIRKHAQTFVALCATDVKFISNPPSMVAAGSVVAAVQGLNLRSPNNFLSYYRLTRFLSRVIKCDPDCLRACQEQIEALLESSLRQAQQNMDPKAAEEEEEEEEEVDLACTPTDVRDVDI

CDK1/Cyclin B complex [4] = molecular target: T2, CDK1/Cyclin B complex (UniProt P06493 1-297; P14635 1-433); experiment: cell-based or functional assay
T2 sequence (P06493 other isoform, or with tags, fused parts or gaps, chain 1 of 2): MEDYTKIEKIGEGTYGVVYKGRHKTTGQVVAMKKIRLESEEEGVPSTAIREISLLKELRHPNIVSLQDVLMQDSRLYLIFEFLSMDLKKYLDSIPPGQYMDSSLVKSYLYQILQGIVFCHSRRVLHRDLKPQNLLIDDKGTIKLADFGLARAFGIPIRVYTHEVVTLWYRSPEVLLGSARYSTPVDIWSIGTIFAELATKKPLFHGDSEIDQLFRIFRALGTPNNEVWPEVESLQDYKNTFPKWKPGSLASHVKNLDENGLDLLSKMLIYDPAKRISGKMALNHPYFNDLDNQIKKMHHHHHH
T2 sequence (P14635 other isoform, or with tags, fused parts or gaps, chain 2 of 2): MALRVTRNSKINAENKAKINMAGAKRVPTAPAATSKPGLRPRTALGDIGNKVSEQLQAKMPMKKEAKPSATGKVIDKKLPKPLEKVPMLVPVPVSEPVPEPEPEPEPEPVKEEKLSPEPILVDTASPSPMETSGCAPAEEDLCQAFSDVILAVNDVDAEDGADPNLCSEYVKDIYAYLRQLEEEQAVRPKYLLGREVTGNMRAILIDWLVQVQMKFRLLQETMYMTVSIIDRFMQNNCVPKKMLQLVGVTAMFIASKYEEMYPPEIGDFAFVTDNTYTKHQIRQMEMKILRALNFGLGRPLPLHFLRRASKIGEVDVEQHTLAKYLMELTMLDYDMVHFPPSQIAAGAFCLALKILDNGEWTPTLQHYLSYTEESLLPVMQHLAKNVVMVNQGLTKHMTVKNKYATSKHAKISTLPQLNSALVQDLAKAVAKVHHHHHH

CDK1/Cyclin B complex [5] = molecular target: T2, CDK1/Cyclin B complex; experiment: pull-down with immobilised peptide
cyclin B = cyclin B (UniProt P14635 1-433); experiment: pull-down with immobilised peptide
Sequence of cyclin B (P14635 whole entry): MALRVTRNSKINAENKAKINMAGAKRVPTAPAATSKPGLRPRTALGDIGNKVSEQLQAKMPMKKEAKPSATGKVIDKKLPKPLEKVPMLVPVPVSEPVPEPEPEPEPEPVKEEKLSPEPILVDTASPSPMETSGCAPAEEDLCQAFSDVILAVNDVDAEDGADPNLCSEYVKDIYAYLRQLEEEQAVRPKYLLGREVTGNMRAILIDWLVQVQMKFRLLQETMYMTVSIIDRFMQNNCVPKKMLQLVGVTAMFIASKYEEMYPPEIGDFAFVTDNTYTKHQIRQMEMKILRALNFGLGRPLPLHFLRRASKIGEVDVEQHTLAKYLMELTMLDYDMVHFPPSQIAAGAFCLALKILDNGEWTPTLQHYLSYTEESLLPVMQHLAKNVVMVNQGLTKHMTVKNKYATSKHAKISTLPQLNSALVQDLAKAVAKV

## H-HAARRLIF-NH2 [H-His-Ala-Ala-Arg-Arg-Leu-Ile-Phe-NH2]
CDK2/cyclin A [1]
  Relative activity, Kinase Inhibition (CDK2/cyclin A kinase assay, pRb substrate, [ATP] = 100 µM): < 0.1 relative to H-His-Ala-Lys-Arg-Arg-Leu-Ile-Phe-NH2 (=1)

## H-FAKRRLIF-NH2 [H-Phe-Ala-Lys-Arg-Arg-Leu-Ile Phe-NH2]
CDK2/cyclin A complex
  Relative activity, CDK2/cyclin A kinase inhibition (pRb substrate): 3 relative to HAKRRLIF-NH2

## H-HAKARLIF-NH2 [H-His-Ala-Lys-Ala-Arg-Leu-Ile-Phe-NH2]
CDK2/cyclin A [2]
  Relative activity, Kinase Inhibition (CDK2/cyclin A kinase assay, pRb substrate, [ATP] = 100 µM): < 0.1 relative to H-His-Ala-Lys-Arg-Arg-Leu-Ile-Phe-NH2 (=1)

## H-HAKRALIF-NH2 [H-His-Ala-Lys-Arg-Ala-Leu-Ile-Phe-NH2]
CDK2/cyclin A [3]
  Relative activity, Kinase Inhibition (CDK2/cyclin A kinase assay, pRb substrate, [ATP] = 100 µM): < 0.1 relative to H-His-Ala-Lys-Arg-Arg-Leu-Ile-Phe-NH2 (=1)

## H-AAKRRLIF-NH2 [H-Ala-Ala-Lys-Arg-Arg-Leu-Ile Phe-NH2]
CDK2/cyclin A complex
  Relative activity, CDK2/cyclin A kinase inhibition (pRb substrate): 1.8 relative to HAKRRLIF-NH2

## H-HAKRPLIF-NH2 [H-His-Ala-Lys-Arg-Pro-Leu-Ile-Phe-NH2]
CDK2/cyclin A [3]
  Relative activity, Kinase Inhibition (CDK2/cyclin A kinase assay, pRb substrate, [ATP] = 100 µM): < 0.1 relative to H-His-Ala-Lys-Arg-Arg-Leu-Ile-Phe-NH2 (=1)

B1: H-His-Ala-Lys-Hse-Arg-Leu-Ile-Phe-NH2 (peptide)
peptide: H-HAK[hSer]RLIF-NH2
SMILES: CC[C@H](C)[C@H](NC(=O)[C@H](CC(C)C)NC(=O)[C@H](CCCNC(=N)N)NC(=O)[C@H](CCO)NC(=O)[C@H](CCCCN)NC(=O)[C@H](C)NC(=O)[C@@H](N)Cc1c[nH]cn1)C(=O)N[C@@H](Cc1ccccc1)C(N)=O
CDK2/cyclin A [2]
  Relative activity, Kinase Inhibition (CDK2/cyclin A kinase assay, pRb substrate, [ATP] = 100 µM): < 0.1 relative to H-His-Ala-Lys-Arg-Arg-Leu-Ile-Phe-NH2 (=1)

## XAKRRLIF (Hse (homoserine) at position 1; C-terminal amide) [H-Hse-Ala-Lys-Arg-Arg-Leu-Ile Phe-NH2]
CDK2/cyclin A complex
  Relative activity, CDK2/cyclin A kinase inhibition (pRb substrate): 2 relative to HAKRRLIF-NH2

## XAKRRLIF (Thi (2-thienylalanine) at position 1; C-terminal amide) [H-Thi-Ala-Lys-Arg-Arg-Leu-Ile Phe-NH2]
CDK2/cyclin A complex
  Relative activity, CDK2/cyclin A kinase inhibition (pRb substrate): 2 relative to HAKRRLIF-NH2

## H-HAKKRLIF-NH2 [H-His-Ala-Lys-Lys-Arg-Leu-Ile-Phe-NH2]
CDK2/cyclin A [2]
  Relative activity, Kinase Inhibition (CDK2/cyclin A kinase assay, pRb substrate, [ATP] = 100 µM): 0.8 relative to H-His-Ala-Lys-Arg-Arg-Leu-Ile-Phe-NH2 (=1)

## DFYHSKRRLIFS-NH2 [p21 (149-160) DFYHSKRRLIFS-NH2]
CDK2/Cyclin E complex
  % Inhibition, cyclin E/CDK2 kinase: 80%
  IC50, cyclin E/CDK2 kinase, GST-pRb: 4.5 µM
CDK4/Cyclin D1 complex
  % Inhibition, cyclin D1/CDK4 kinase: 70%
  IC50, cyclin D1/CDK4 kinase, GST-pRb: 20 µM
CDK1/Cyclin B complex [4]
  IC50, CDK1-Cyclin B phosphorylation of GST-Rb: 200 µM
  IC50, CDK1-Cyclin B phosphorylation of Histone 1: > 200 µM
CDK1/Cyclin B complex [5]
  binding result: no binding
Cyclin B
  binding result: no binding

## H-HALRRLIF-NH2 [H-His-Ala-Leu-Arg-Arg-Leu-Ile-Phe-NH2]
CDK2/cyclin A [1]
  Relative activity, Kinase Inhibition (CDK2/cyclin A kinase assay, pRb substrate, [ATP] = 100 µM): 0.1 relative to H-His-Ala-Lys-Arg-Arg-Leu-Ile-Phe-NH2 (=1)

B2: H-His-Ala-Lys-Nle-Arg-Leu-Ile-Phe-NH2 (peptide)
peptide: H-HAK[Nle]RLIF-NH2
SMILES: CCCC[C@H](NC(=O)[C@H](CCCCN)NC(=O)[C@H](C)NC(=O)[C@@H](N)Cc1c[nH]cn1)C(=O)N[C@@H](CCCNC(=N)N)C(=O)N[C@@H](CC(C)C)C(=O)N[C@H](C(=O)N[C@@H](Cc1ccccc1)C(N)=O)[C@@H](C)CC
CDK2/cyclin A [2]
  Relative activity, Kinase Inhibition (CDK2/cyclin A kinase assay, pRb substrate, [ATP] = 100 µM): < 0.1 relative to H-His-Ala-Lys-Arg-Arg-Leu-Ile-Phe-NH2 (=1)

## DFYHAKRRLIFS-NH2 [p21 (149-160)S153A DFYHAKRRLIFS-NH2]
CDK1/Cyclin B complex [4]
  IC50, CDK1-Cyclin B phosphorylation of GST-Rb: > 200 µM
  IC50, CDK1-Cyclin B phosphorylation of Histone 1: 200 µM

## H-HAKRSLIF-NH2 [H-His-Ala-Lys-Arg-Ser-Leu-Ile-Phe-NH2]
CDK2/cyclin A [3]
  Relative activity, Kinase Inhibition (CDK2/cyclin A kinase assay, pRb substrate, [ATP] = 100 µM): 0.7 relative to H-His-Ala-Lys-Arg-Arg-Leu-Ile-Phe-NH2 (=1)
